Drawing on US20050191621A1, this text covers concentration of antibody required to neutralize 50% of input virus (luciferase reporter virus, GHOST-CCR5 cells), concentration of antibody required to neutralize 90% of input virus (luciferase reporter virus, GHOST-CCR5 cells) and percent neutralization for two substances.

In experiment [1] the target is IIIB-V3BaL Env (HXB Env with the V3 loop of HIV-1/BaL; on luciferase reporter virions) (HIV-1 (IIIB/BaL chimera)). The experiment in a line: cell-based or functional assay.
Experiment [2] deals with 8x-V3BaL Env (8x Env with the V3 loop of HIV-1/BaL; on cells or on luciferase reporter virions) (HIV-1 (IIIBx 8x/BaL chimera)). Description: cell-based or functional assay.

A value given as a limit tells only on which side of the number the result lay.

For the substance “CD4-induced (CD4i) monoclonal antibody 48d”, in experiment [1], the concentration of antibody required to neutralize 50% of input virus (luciferase reporter virus, GHOST-CCR5 cells) is above 5000 ng/mL and the concentration of antibody required to neutralize 90% of input virus (luciferase reporter virus, GHOST-CCR5 cells) was above 5000 ng/mL. In experiment [2], this substance yielded a concentration of antibody required to neutralize 50% of input virus (luciferase reporter virus, GHOST-CCR5 cells) of 3 ng/mL; a concentration of antibody required to neutralize 90% of input virus (luciferase reporter virus, GHOST-CCR5 cells) above 200 ng/mL; a percent neutralization at 200 ng/ml (luciferase reporter virus, GHOST-CCR5 cells) of 88%.

In the case of “CD4-induced (CD4i) monoclonal antibody 17b”, the concentration of antibody required to neutralize 50% of input virus (luciferase reporter virus, GHOST-CCR5 cells) in experiment [1] stood at 14 ng/mL; in experiment [2], 2 ng/mL. Also, the concentration of antibody required to neutralize 90% of input virus (luciferase reporter virus, GHOST-CCR5 cells) in experiment [1] stood at 90 ng/mL; in experiment [2] it was 15 ng/mL.
